Patent US20240182596A1 (TUBULIS, published 2024)

Key:
FcγRIIIa (CD16) (V158) = molecular target: T1, FcγRIIIa (CD16) (V158) (Homo sapiens, UniProt P08637); experiment: Lumit FcγRIIIa (V158) Binding Immunoassay (Promega), left panel FcγRIIIa (CD16) (V158), competition with Tracer-LgBiT for FcγR-SmBiT, falling luminescence means binding, n=1
T1 construct: m21 joins both polymorphic variants; also called V158 variant of m21

[1] = molecular target: T2, human Napi2b-mCherry on HEK293 cells (human, UniProt O95436 1-690); experiment: flow cytometry on HEK293 cells expressing human Napi2b-mCherry (panel Napi2b-HEK293), Alexa-dye anti-human IgG H+L secondary antibody, MFI ratio to the non-specific binding control
T2 construct: also called Napi2b (SLC34A2); HEK293 cells overexpressing Napi2b
T2 sequence: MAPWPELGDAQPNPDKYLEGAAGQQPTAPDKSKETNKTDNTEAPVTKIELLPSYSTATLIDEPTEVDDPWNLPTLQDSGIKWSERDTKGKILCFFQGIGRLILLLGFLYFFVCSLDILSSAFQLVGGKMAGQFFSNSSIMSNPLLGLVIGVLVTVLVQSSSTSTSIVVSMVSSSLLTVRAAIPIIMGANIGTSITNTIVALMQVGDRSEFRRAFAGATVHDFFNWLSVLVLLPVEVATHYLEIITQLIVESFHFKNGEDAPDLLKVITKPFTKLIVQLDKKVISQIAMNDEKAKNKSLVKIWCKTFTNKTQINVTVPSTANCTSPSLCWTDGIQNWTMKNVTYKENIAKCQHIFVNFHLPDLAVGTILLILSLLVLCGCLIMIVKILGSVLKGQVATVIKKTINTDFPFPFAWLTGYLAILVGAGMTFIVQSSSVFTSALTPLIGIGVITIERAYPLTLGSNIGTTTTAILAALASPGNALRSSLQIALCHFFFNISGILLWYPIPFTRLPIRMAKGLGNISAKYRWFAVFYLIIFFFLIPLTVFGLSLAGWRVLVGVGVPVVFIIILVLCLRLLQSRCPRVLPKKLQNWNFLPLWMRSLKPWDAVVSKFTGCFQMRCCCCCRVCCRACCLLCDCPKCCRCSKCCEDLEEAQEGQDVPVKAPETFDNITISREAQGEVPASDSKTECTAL

[2] = molecular target: T3, human Napi2c-mCherry on HEK293 cells (human, UniProt Q8N130 1-599); experiment: flow cytometry on HEK293 cells expressing human Napi2c-mCherry (panel Napi2c-HEK293), MFI ratio to the non-specific binding control
T3 construct: whole, on cells; also called Napi2c (SLC34A3); not shown: mCherry fusion
T3 sequence (looked up): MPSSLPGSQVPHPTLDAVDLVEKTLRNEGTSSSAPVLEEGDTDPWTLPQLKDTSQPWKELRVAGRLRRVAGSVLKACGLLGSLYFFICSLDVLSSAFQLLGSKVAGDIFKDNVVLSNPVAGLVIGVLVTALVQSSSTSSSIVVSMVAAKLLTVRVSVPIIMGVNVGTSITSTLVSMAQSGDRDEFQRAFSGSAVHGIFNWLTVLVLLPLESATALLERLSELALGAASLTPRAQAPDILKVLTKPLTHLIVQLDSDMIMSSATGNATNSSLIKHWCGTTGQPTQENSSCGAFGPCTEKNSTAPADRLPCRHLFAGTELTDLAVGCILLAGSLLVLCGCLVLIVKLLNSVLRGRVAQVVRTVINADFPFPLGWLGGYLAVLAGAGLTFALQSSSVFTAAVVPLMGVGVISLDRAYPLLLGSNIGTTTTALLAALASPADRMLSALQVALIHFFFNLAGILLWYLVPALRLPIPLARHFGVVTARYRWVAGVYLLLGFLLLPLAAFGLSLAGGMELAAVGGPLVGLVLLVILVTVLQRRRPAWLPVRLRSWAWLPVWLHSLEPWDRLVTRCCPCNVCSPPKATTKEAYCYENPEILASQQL

[3] = molecular target: T4, recombinant human FcγRI (FcγR-SmBiT, Lumit assay) (human, UniProt P12314 16-292); experiment: Lumit FcγRI Binding Immunoassay (Promega), competition with Tracer-LgBiT for FcγRI-SmBiT, falling luminescence means binding, n=1
T4 construct: Kit reagent (Promega); also called FcγRI (CD64); not shown: SmBiT label of the kit
T4 sequence (P12314 16-292): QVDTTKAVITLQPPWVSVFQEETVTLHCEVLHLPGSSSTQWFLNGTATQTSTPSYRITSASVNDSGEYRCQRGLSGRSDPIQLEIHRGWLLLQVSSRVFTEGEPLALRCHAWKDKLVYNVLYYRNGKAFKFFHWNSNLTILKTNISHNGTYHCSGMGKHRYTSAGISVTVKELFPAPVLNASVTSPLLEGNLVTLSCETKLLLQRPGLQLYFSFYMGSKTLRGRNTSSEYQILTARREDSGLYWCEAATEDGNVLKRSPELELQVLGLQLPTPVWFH

[4] = molecular target: T5, human Napi2a-mCherry on HEK293 cells (human, UniProt Q06495 1-639); experiment: flow cytometry on HEK293 cells expressing human Napi2a-mCherry (panel Napi2a-HEK293), MFI ratio to the non-specific binding control
T5 construct: whole, on cells; also called Napi2a (SLC34A1); not shown: mCherry fusion
T5 sequence (looked up): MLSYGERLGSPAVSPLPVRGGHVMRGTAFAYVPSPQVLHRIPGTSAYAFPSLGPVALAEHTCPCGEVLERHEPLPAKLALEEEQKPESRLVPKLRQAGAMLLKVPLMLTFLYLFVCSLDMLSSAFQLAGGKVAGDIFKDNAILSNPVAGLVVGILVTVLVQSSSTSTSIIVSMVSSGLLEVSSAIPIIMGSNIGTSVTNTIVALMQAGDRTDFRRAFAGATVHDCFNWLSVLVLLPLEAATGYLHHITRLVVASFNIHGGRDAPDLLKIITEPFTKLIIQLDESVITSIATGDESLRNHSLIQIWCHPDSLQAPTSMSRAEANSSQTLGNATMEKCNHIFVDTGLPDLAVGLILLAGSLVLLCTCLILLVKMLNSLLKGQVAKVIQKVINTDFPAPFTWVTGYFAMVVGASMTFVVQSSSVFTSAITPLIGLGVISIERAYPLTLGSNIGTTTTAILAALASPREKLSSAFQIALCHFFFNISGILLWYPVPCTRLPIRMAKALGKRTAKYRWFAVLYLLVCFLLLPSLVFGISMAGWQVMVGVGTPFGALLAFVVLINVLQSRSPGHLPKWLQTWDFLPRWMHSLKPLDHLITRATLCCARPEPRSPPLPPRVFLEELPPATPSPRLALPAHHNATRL

FcγRIIIa (CD16) (F158) = molecular target: T6, FcγRIIIa (CD16) (F158) (Homo sapiens, UniProt P08637); experiment: Lumit FcγRIIIa (F158) Binding Immunoassay (Promega), right panel FcγRIIIa (CD16) (F158), competition with Tracer-LgBiT for FcγR-SmBiT, falling luminescence means binding, n=1
T6 construct: m21 joins both polymorphic variants; also called F158 variant of m21
T6 sequence (P08637 17-208 limits assumed): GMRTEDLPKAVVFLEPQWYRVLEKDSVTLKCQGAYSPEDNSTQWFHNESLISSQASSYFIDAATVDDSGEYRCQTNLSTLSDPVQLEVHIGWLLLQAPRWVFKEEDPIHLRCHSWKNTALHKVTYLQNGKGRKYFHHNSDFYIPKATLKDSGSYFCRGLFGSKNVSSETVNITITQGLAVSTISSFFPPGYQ

[5] = molecular target: T7, human NaPi2b on NaPi2b-positive cell lines OVCAR-3 and HCC-78 (human, UniProt O95436 1-690); experiment: cell-based or functional assay
T7 sequence: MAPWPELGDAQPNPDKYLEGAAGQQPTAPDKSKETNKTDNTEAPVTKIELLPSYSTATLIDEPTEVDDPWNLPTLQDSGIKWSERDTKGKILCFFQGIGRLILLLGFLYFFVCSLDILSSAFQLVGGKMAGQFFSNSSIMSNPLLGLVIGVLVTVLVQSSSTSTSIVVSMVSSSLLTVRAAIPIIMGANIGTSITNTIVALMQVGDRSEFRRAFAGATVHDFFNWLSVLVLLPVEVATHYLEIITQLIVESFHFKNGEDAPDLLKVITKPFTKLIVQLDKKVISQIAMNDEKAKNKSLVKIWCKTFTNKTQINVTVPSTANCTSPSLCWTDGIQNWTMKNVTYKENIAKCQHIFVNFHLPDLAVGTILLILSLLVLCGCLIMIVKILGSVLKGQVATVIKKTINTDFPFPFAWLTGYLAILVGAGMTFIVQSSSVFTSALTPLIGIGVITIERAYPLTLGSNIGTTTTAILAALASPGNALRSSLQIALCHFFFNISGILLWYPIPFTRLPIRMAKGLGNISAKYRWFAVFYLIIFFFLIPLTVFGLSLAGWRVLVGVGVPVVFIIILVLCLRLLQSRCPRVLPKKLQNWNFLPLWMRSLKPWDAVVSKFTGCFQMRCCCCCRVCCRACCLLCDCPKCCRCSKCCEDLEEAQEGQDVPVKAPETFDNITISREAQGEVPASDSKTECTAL

FcγRIIa (CD32) (H131) = molecular target: T8, FcγRIIa (CD32) (H131) (Fused to the SmBiT luciferase fragment (Promega Lumit reagent), not carried in the letters); experiment: Lumit FcγRIIa (H131) Binding Immunoassay (Promega), left panel FcγRIIa (CD32) (H131), competition with Tracer-LgBiT for FcγR-SmBiT, n=1
T8 construct: m20 joins both polymorphic variants; also called H131 variant of m20; not shown: SmBiT tag (and any linker or purification tag) of Promega's FcγR-SmBiT fusion
T8 chain: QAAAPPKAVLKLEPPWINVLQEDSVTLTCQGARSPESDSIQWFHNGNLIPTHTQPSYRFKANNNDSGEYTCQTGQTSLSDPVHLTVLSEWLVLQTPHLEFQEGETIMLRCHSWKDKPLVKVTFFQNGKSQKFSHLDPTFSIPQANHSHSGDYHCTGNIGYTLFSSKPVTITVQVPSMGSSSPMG

T1 sequence (P08637 17-208 F176V limits assumed): as the sequence (P08637 17-208 limits assumed) above, with F160V counted along it

B1: AV25-P5(PEG24)-VC-PAB-Exatecan DAR8 ADC (antibody, human IgG1, kappa, L234A L235A)
heavy: not shown
light: DIQMTQSPSSLSASVGDRVTITCSASQDIGNFLNWYQQKPGKTVKVLIYYASSLYSGVPSRFSGSGSGTDYTLTISSLQPEDFATYYCQQYSKLPLTFGQGTKLELKRTVAAPSVFIFPPSDEQLKSGTASVVCLLNNFYPREAKVQWKVDNALQSGNSQESVTEQDSKDSTYSLSSTLTLSKADYEKHKVYACEVTHQGLSSPVTKSFNRGEC
modifications: P5(PEG24)-VC-PAB-Exatecan linker-payload on the interchain cysteine (1 per light chain, DAR8); P5(PEG24)-VC-PAB-Exatecan linker-payload on interchain cysteines (up to 3 per heavy chain, DAR8)
notes: also called TUB-040
In the case of B1, the binding result (FcγRIIIa (CD16) (V158)) is reported as “binds”, the “EC50 (read off the curve)” value [1] is reported as ~0.9 nM and the binding result [2] is reported as “no binding (tested: 200 nM)”. B1: binds [3]; no binding (tested: 200 nM) [4]; binds (FcγRIIIa (CD16) (F158)). For the same binder, the “IC50 of cytotoxicity (resazurin assay, 7 days) on HCC-78, against the anti-Napi2b comparison ADC” value [5] was 15.5 fold lower IC50 and the binding result (FcγRIIa (CD32) (H131)) was “no binding”.
